Reference: the nanobody polyreactivity screen of Harvey et al. (2022)

Test: yeast display, Sf9 membrane polyspecificity reagent, FACS + sequencing; frameworks hold sequencing errors
Summary of the method: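 A nanobody's polyreactivity label depends on the gate it was sorted from. Yeast display cells were stained with 10% biotinylated, detergent-solubilized Sf9 membrane reagent for 1 hour at 4 °C, enriched on streptavidin microbeads and sorted by FACS. The low and high (top ~1%) gates were set on anti-HA fluorescence for expression and streptavidin fluorescence for reagent binding.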

Row | Sequence | polyreactivity (PSR sort gate)
1 | QVQLQESGGGLVQAGGSLRLSCAASGSISGPQVMVWYRQAPGKEREFVAAINVGANTYYADNVKGRFTISRDNAKNTVYLQMNSLKPEDTAVYYCAAVYYGDIGHESWGQGTQVTVSC | low polyreactivity
2 | QVQLQESGGGLVQAGGSLRLSCAASGSISLGRGMGWYRQAPGKREFVVTIAASVNWGTNTNYADSVKGRFTISRDNAKNTLYLQMNSLKPEDTAVYYCAVLPEWETRHDYWGHGTQVTVSS | low polyreactivity
3 | QVQLQESGGGLVQAGGSLRLSCAASGSISRLDYRGWYRQASGKERELVAAIDNGSTTYYADSVKGRLTISRDNAKYTVYLQMNSLKPEDTAVYFCAAVRGRGGTHAYWGQGTQVTVSG | low polyreactivity
4 | QVQLQESGGGLVQAGGSLRLSCAASGSISYPRTMGWYREAPGKEREFVAGIGVGGTTYYADSVKGRFTISRDNAKNTVYLQMNSLKPEDAAVYYCAVAAYYDKYYVYWGQGTQVTVSC | low polyreactivity
5 | QVQLQESGGGLVQAGGSLRLSCAASGSLFLFYTMGWYRQAPVIEREFVAGITLGTTTYNADSVKGRFTISRDNVKNTVFLQMNSLKPEDTAVYYCAVAVGHYTEFWYWGQGTQVTMSS | high polyreactivity
6 | QVQLQESGGGLVQAGGSLRLSCAASGTIFRFRYMGWHRQAPGKERELVAGINGGTTTYYADSVIGRFTISRDNAKNTVYLHMNCLKPDDTAVYNCAAGASRLTYYDYWGQGTQVTVSS | low polyreactivity
7 | QVQLQESGGGLVQAGGSLRLSCAASGTIFRFRYMGWHRQAPGTERELVAGINGGTTTYYADSVIGRFTISRDNAKNTVYLQMNSLKPDDTAVYNCAAGASRLTYYDYWGQGTQVTVSS | low polyreactivity
8 | QVQLQESGGGLVQAGGSLRLSCAASGTIFTARFMGWYRQAPGKERELVATITDGGNTNHADSVKGRFTISRDNAKNTVYLQMNSLKPEDAAVYFCAAGEVDNDTLLYWGQGSQVTVSS | low polyreactivity
9 | QVQLQESGGGLVQAGGSLRLSCAASGTIFWLWAMGWYCKAPGKERELVASISSGGTTYHADSVKGRFTISRDNAKNTVYLQMNSLKPEDTAVYYSAAFYVATAKLGYWGQGSQVTVSS | low polyreactivity
10 | QVQLQESGGGLVQAGGSLRLSCAASGTIFWLWAMGWYCPAPGKERELVASISSGGTTYHADSVKGRFTISRDNAKNTVYLQMNSLKPEDTAVYYSAAFYVATAKLGYWGQGSQVTVSS | low polyreactivity
11 | QVQLQESGGGLVQAGGSLRLSCAASGTISDRAGMGWYRQAPAKNAIVATIDRGTNTNYADSVKGRFTISRDNAKNPVYLKMNSLKPEDTAVYNWAADGRYYIYLDYWGQGTQVTVSS | low polyreactivity
12 | QVQLQESGGGLVQAGGSLRLSCAASGTISDSGLKGWYRQAPGIERELVAGISSGGITNYADSVKGRFTISRDNAQNTVYLQMNSLKPVDTAVYWGQGTQLTVSS | low polyreactivity
13 | QVQLQESGGGLVQAGGSLRLSCAASGTISLGDNMGWYRQAPGKEREFVATISVGGITYYVDSVKGRFTISRDIAKNTVYLQMNSLKPEDTAVYYCAALDIYYFRYYYWGQGTQVTVSS | low polyreactivity
14 | QVQLQESGGGLVQAGGSLRLSCAASGTISPLPAMGWYRQAPGKEREFVAGIDTGAITNYADSVKGRFTISRDNAKNTVYLQMNSLIAEDTAVYYCAVFPAAYDYYERYYTYWGQGTQVTVSS | low polyreactivity
15 | QVQLQESGGGLVQAGGSLRLSCAASGTISQEDRMGWYRQAPGKEREFVAAIGLGSNTNYADSLKGRFTISRDNAKNTVYLQMNSLKPEDTAVYYCAVSVWQYSDHVYRGQGTQVTVSS | low polyreactivity
16 | QVQLQESGGGLVQAGGSLRLSCAASGTISQEDWMGWYRQAPGKEREFVAAIGLGSNTNYADSLKGRFTMSRDNAKNTVYLQMNSLKPEDTAVYYCAVSVWQYSDHVYRGQGTQVTVSS | low polyreactivity
17 | QVQLQESGGGLVQAGGSLRLSCAASGTISTDSYMGWYRQAPGKERKFVATIGYGGITYYADSVKGRSTISRDSAKNTVYLQMNSLKPEDTAVYYCAVNSYYPDHYWYWGRGTQVTVSS | high polyreactivity
18 | QVQLQESGGGLVQAGGSLRLSCAASGTISYAPHMGWYRHAPGKERELDAGITIGGTTYYADSVKGRFTISRDYAKNTVDLQMNRLSPGDTAVYYCAAHSEQYTPFYYWGQGTQVTVSS | low polyreactivity
